{"source": "patent US20210000879A1", "about": "“METHODS AND COMPOSITIONS FOR MRNA-BASED MODULATION AND DETECTION OF CELL PHENOTYPES” (Georgia Tech Research Corporation, priority 2018, published 2021)", "molecules": {"B1": {"name": "CatCH: mRNA encoding a modified ChR2 with a single amino acid substitution, CatCH (nucleic acid)", "DNA": "GGGAAATAAGAGAGAAAAGAAGAGTAAGAAGAAATATAAGAGCCACCATGGATTACGGCGGAGCCCTGTCTGCCGTGGGCAGAGAACTGCTGTTCGTGACCAACCCCGTGGTCGTGAACGGCAGCGTGCTGGTGCCTGAGGACCAGTGTTACTGCGCCGGCTGGATCGAGAGCAGAGGCACAAACGGCGCCCAGACCGCCTCTAACGTGCTGCAGTGGCTGGCCGCTGGCTTCAGCATCCTGCTGCTGATGTTCTACGCCTACCAGACCTGGAAGTCTACCTGCGGCTGGGAAGAGATCTACGTGTGCGCCATCGAGATGGTCAAAGTGATCCTGGAATTCTTCTTCGAATTCAAAAACCCCTCCATGCTGTACCTGGCCACCGGCCACAGAGTGCAGTGGCTGAGATACGCCGAGTGGCTGCTGACCTGCCCCGTGATCTGCATCCACCTGAGCAACCTGACCGGCCTGTCCAACGACTACAGCAGACGGACCATGGGCCTGCTGGTGTCCGACATCGGCACAATCGTGTGGGGCGCCACAAGCGCCATGGCCACAGGCTACGTGAAAGTGATCTTCTTCTGCCTGGGCCTGTGCTACGGCGCCAACACATTCTTCCACGCCGCCAAGGCCTACATCGAGGGCTACCACACAGTGCCCAAGGGCAGATGCAGACAGGTCGTGACAGGCATGGCCTGGCTGTTCTTCGTGTCCTGGGGCATGTTCCCCATCCTGTTCATCCTGGGCCCTGAGGGCTTCGGCGTGCTGTCTGTGTACGGCTCTACCGTGGGCCACACCATCATCGACCTGATGAGCAAGAACTGTTGGGGACTGCTGGGCCACTACCTGAGAGTGCTGATCCACGAGCACATCCTGATTCACGGCGACATCAGAAAGACCACCAAGCTGAACATCGGCGGCACCGAGATCGAGGTGGAAACCCTGGTGGAAGATGAGGCCGAGGCTGGCGCTGTGCCAGCCGCTGCTACAGGTAAGCCTATCCCTAACCCTCTCCTCGGTCTCGATTCTACGTGATAAGCTGCCTTCTGCGGGGCTTGCCTTCTGGCCATGCCCTTCTTCTCTCCCTTGCACCTGTACCTCTTGGTCTTTGAATAAAGCCTGAGTAGGAAGGC", "modifications": "mRNA transcribed from DNA"}, "B2": {"name": "JAWS mRNA: mRNA encoding the inhibitory opsin JAWS, activated by constant orange or red light (nucleic acid)", "chain": "GGGAAATAAGAGAGAAAAGAAGAGTAAGAAGAAATATAAGAGCCACCATGACCGCCGTGTCTACCACAGCCACAACAGTGCTGCAGGCCACACAGAGCGACGTGCTGCAAGAGATCCAGAGCAACTTCCTGCTGAACAGCAGCATCTGGGTCAACATTGCCCTGGCCGGCGTTGTGATCCTGCTGTTTGTGGCCATGGGCCGCGATCTGGAAAGCCCTAGAGCCAAGCTGATCTGGGTCGCCACAATGCTGGTGCCCCTGGTGTCTATCAGCAGCTATGCCGGACTGGCCTCTGGCCTGACAGTGGGCTTTCTGCAAATGCCTCCTGGACACGCCCTGGCTGGACAAGAAGTTCTGTCTCCCTGGGGCAGATACCTGACCTGGACCTTCAGCACCCCTATGATTCTGCTGGCCCTGGGACTGCTGGCCGATACAGATATCGCCAGCCTGTTCACCGCCATCACCATGGACATCGGGATGTGTGTGACAGGCCTGGCCGCTGCTCTGATCACAAGCAGCCATCTGCTGAGATGGGTGTTCTACGGAATCAGCTGCGCCTTCTTCGTGGCCGTGCTGTATGTGCTGCTGGTGCAGTGGCCTGCCGATGCTGAAGCTGCCGGAACCTCTGAGATCTTCGGCACCCTGAGAATCCTGACCGTGGTGCTGTGGCTGGGCTACCCTATTCTGTTTGCCCTGGGCTCTGAAGGCGTGGCACTGCTGTCTGTGGGAGTGACAAGCTGGGGCTATAGCGGCCTGGACATCCTGGCCAAATACGTGTTCGCCTTTCTGCTCCTCAGATGGGTCGCCGCCAATGAGGGAACAGTGTCTGGCTCTGGCATGGGCATTGGATCTGGCGGAGCTGCCCCTGCTGATGATCCAGCTGCTGCCACCTATCCTTACGACGTGCCCGACTACGCCTGATGAGCTGCCTTCTGCGGGGCTTGCCTTCTGGCCATGCCCTTCTTCTCTCCCTTGCACCTGTACCTCTTGGTCTTTGAATAAAGCCTGAGTAGGAAGGCTCGCTTTCTTGCTGTCCAATTTCTATTAAAGGTTCCTTTGTTCCCTAAGTCCAACTACTAAACTGGGGGATATTATGAAGGGCCTTGAGCATCTGGATTCTGCCTAATAAAAAACATTTATTTTCATTGCGC"}}, "key": {"[1]": {"test_system": "rat model of complete heart block", "test": "Effect of TGF-beta small molecule inhibitor on ventricular pacing with TBX18 mRNA", "assay_type": "in vivo", "conditions": "A83-01 released by osmotic pump", "protocol": "On Day 0, an osmotic pump releasing A83-01 (a TGF-beta inhibitor, Sigma Aldrich) was implanted into the rats. On Day 1, TBX18 mRNA was injected into the rats and a telemetry device was also implanted. Two doses of TBX18 mRNA were given to the rats: (i) a low dose of 100 μg TBX18 mRNA with 68.4 μl RNA-free phosphate-buffered saline (PBS), or (ii) a high dose of 300 μg TBX18 mRNA with 205 μl RNA-free PBS. A continuous telemetry recording of each rat's electrocardiogram (ECG) was made for 21 days after implantation of the telemetry device. In addition, 3-lead surface ECGs were performed on anesthetized animals on Days 7, 14, and 21 along with an isoproterenol challenge. The heart was harvested from each animal on Day 21.\nThe inventors then determined the effects of including a TGF-beta small molecule inhibitor on ventricular pacing with TBX18 mRNA (FIG. 16)."}, "[2]": {"test_system": "neonatal rat ventricular cardiomyocytes (NRVMs)", "test": "Capture of CatCh transfected NRVMs by 475 nm blue light stimulation", "assay_type": "cell-based", "protocol": "(§1) As a first step, the inventors expressed CatCh in neonatal rat ventricular cardiomyocytes (NRVMs) using IVT mRNA. Transfection conditions were varied using GFP mRNA. After identifying the optimal vehicle for transfection (Viromer Red), the expression of the protein of interest, CatCh-V5, was assessed after a 24 hour pulse of mRNA. […] CatCh-V5 localized to the membrane of transfected cells roughly 12 hours after transfection. […] The inventors next evaluated the function of transfected NRVMs. CatCh is an opsin, which induces a membrane depolarization in response to blue light stimulation. CatCh transfected NRVMs were exposed to a range of optical intensities (0 to 100% power) using 475 nm blue LED light. At each light intensity, the inventors scanned a range of stimulation durations (1 to 15 milliseconds). A train of monophasic square waves at a frequency of 2 Hz for a total of 30 seconds was utilized. The inventors compared the capture rate of CatCh versus Channelrhodopsin 2 (ChR2), a commonly used opsin. […] Cells were then subjected to blue light stimulation and analyzed for capture at different transfection amounts and timepoints."}, "[3]": {"test_system": "neonatal rat ventricular myocytes (NRVMs)", "test": "MEA light pacing of NRVMs transfected with ChR2 or CatCH mRNA", "assay_type": "cell-based", "source_text": "For proper characterization of cells transfected with opsins, in addition to protein expression, another metric, function, can assist in properly optimizing the use of mRNA as an expression vector. Functional characterization can be performed with the use of a multi-electrode array (MEA). An MEA device uses electrodes to measure the field potential of nearby cells. Changes in field potential in cardiomyocytes can be detected in an amplitude and location-specific manner depending on the pickup electrode. The MEA device used, a Maestro from Axion Biosystems, allows the simultaneous measurement and light excitation of 16 electrodes per well in a 48 well plate. By employing primary ventricular cardiomyocytes from neonatal rats (NRVMs), functional expression of an opsin such as ChR2 can be measured as a synchronization event between electrical activity and pulsed light excitation from the LEDs embedded in the Axion Lumos device.\nPacing cardiac myocytes allows the screening of new drugs in a controlled environment, where the effect on beat frequency and waveforms can be measured against predicted values in the presence/absence of drugs. The inventors transfected neonatal rat ventricular myocytes (NRVMs) with mRNA encoding ChR2 and a modified ChR2 with a single amino acid substitution, CatCH. NRVMs were plated on MEA plates and the next day were transfected with ChR2 or CatCH mRNA at varying concentrations in triplicate wells using Viromer Red (Lipocalyx). […] Furthermore, when interrogated with excitation rates of 1 hz, 2 hz, and 3 hz, CatCH transfected cells were able to be driven at higher beat rates (3 hz) up to 72 hours post-transfection (FIG. 8) compared to ChR2 transfected cells. As the amount of mRNA and structure of the opsin are very similar, this difference can be inferred as due to enhanced opsin sensitivity—fewer opsins per cell were necessary to drive cardiac action potentials. When opsin expression was low, such as at timepoints several days following transfection, cardiac cells could only be driven at the slower rate of 1 hz successfully."}, "[4]": {"test_system": "neonatal rat ventricular cardiomyocytes (NRVMs)", "test": "CatCh-V5 expression time course by imaging and flow cytometry", "assay_type": "cell-based", "conditions": "24 hour pulse of mRNA; Viromer Red", "protocol": "as §1"}, "[5]": {"test_system": "Human iPS cell-derived cardiomyocytes", "test": "MEA functional testing of mRNA-expressed opsins with light excitation", "assay_type": "cell-based", "protocol": "Human iPS cell-derived cardiomyocytes were seeded into 48 well Axion MEA plates and cultured for 2 weeks until completely synchronized electrical activity (beat rate) was observed. Cells were transfected with ChR2 mRNA, JAWs mRNA, delivery vehicle only, or a mixture of both mRNAs using a modified PEI derivative (Lypocalyx Gmbh). Transfected cells were assayed using the Axion Maestro MEA and Lumos light excitation device at 6 hours and 24 hours post transfection. Assays were comprised of electrical readout (16 electrodes per well) with either no stimulus, blue light stimulus (drives firing in ChR2-transfected cells), orange light stimulus (inhibits firing in JAWs-transfected cells), or blue light impulse stimulus with a period of constant orange light.\nAs a preliminary step, the inventors determined the optimal amount of delivery vehicle to transfect cells for adequate function of the expressed mRNA, defined as complete control of beat rate with ChR2 and conversely complete inhibition of firing with JAWs. […] Delivery vehicle alone had no effect on native cell beat rates, thus it is likely that higher amounts of protein can be generated if opsin function is required more rapidly. […] Using 0.1 ul of delivery vehicle, all three wells (100%) were paced via light (FIG. 3C).\nThe inventors next tested expression and function of ChR2 and JAWS (inhibitory opsin) in iPS-derived cardiomyocytes. Here, 500 ng each of ChR2 and JAWS mRNA were delivered to iPS-derived cardiomyocytes in an MEA plate (FIG. 9). The next day, cells were paced using pulsed blue light stimulation (arrows). At the same time, orange light was used for several seconds (bars) to prevent cardiomyocytes from beating."}}, "data": [{"molecule": "Cc1cccc(-c2nn(C(=S)Nc3ccccc3)cc2-c2ccnc3ccccc23)n1", "note": "[A83-01, reference compound]", "values": [{"measurement": "effect on ventricular pacing / block", "setting": "[1]", "value": "reversed the block"}]}, {"molecule": "B1", "values": [{"measurement": "optimal RNA dose to achieve reliable pacing over time", "setting": "[2]; 0.1, 1 and 10 ng/1000 cells tested", "value": "1 ng/1,000 cells"}, {"measurement": "capture rate versus Channelrhodopsin 2 (ChR2)", "setting": "[2]; 475 nm blue LED, 0 to 100% power, 1 to 15 milliseconds, 2 Hz for 30 seconds", "value": "superior sensitivity"}, {"measurement": "days post-transfection with highest capture rates at lowest stimulation thresholds", "setting": "[2]; blue light stimulation", "value": "1 to 3", "unit": "days"}, {"measurement": "light sensitivity compared with ChR2 based on MEA measurements", "setting": "[3]; 125 ng of CatCH versus 1000 ng of ChR2", "value": "much higher sensitivity than ChR2"}, {"measurement": "maximum beat rate comparison with ChR2", "setting": "[3]; 1 hz, 2 hz, 3 hz LED pulsing, time course", "value": "able to sustain higher frequencies"}, {"measurement": "LED light intensity to which the opsin responds", "setting": "[3]; 24 hours post transfection", "value": 5, "unit": "%"}, {"measurement": "light required for electrical response relative to ChR2", "setting": "[3]; 24 hours post-transfection", "value": 15, "unit": "times"}, {"measurement": "time post-transfection up to which cells could be driven at 3 hz", "setting": "[3]; LED pulsing, maximum intensity excitation light", "value": "up to 72 hours"}, {"measurement": "beat rate at which cells were able to be driven", "setting": "[3]; excitation rates of 1 hz, 2 hz, and 3 hz, up to 72 hours post-transfection", "value": 3, "unit": "hz"}, {"measurement": "time after transfection to membrane localization", "setting": "[4]", "value": "roughly 12 hours"}, {"measurement": "time by which expression dropped off significantly", "setting": "[4]", "value": "≤ 5", "unit": "days"}, {"measurement": "time of peak expression", "setting": "[4]", "value": 24, "unit": "h"}]}, {"molecule": "B2", "values": [{"measurement": "opsin function in dual transfection", "setting": "[5]; 500 ng each of ChR2 and JAWS mRNA, next day, pulsed blue light and orange light", "value": "function of both opsins"}, {"measurement": "inhibition of beating under continuously applied orange light", "setting": "[5]; period of 10 seconds orange light", "value": "inhibited beating completely"}, {"measurement": "time post-transfection at which complete capture (synchronization or complete inhibition) was observed", "setting": "[5]; second highest and highest amounts of delivery vehicle", "value": 24, "unit": "h"}]}]}
